± gives the standard error. Variants at the floor of the assay were thinned out.
B1: glmS ribozyme (parent)
chain: AUAAAAGCGCCAGAACUACAGAAAUGUAGUUGACGAGGAGGAGGUUUAUCGAAUUUUCGGCGGAUGCCUCCAAA

Assays:
Conditions in all cases: with glucosamine-6-phosphate
[1] = variants of: B1; test: self-cleavage kobs at 640 uM GlcN6P; higher = faster cleavage; RNA array
How it was run: (§1)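 Barcoded ribozyme variants were transcribed in situ on sequenced MiSeq chips by E. coli RNA polymerase. At 37 °C, a hybridised Cy3 probe tracked them while glucosamine-6-phosphate (40 μM to 10 mM) in HEPES/KCl/Mg(OAc)2 buffer flowed in and tiles were imaged over ~14 h. Per-tile medians of signals normalised to baseline and to non-cleaving reference variants were fit to one- or two-exponential decays, giving kobs. kcat and KM came from weighted Michaelis–Menten fits across concentrations.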

[2] = variants of: B1; test: self-cleavage kobs at 2500 uM GlcN6P; higher = faster cleavage; RNA array
How it was run: as §1

[3] = variants of: B1; test: self-cleavage kobs at 10000 uM GlcN6P; higher = faster cleavage; RNA array
How it was run: as §1

Variant	self-cleavage kobs at 640 uM GlcN6P [1] [s⁻¹]	self-cleavage kobs at 2500 uM GlcN6P [2] [s⁻¹]	self-cleavage kobs at 10000 uM GlcN6P [3] [s⁻¹]
A15G A36U U45G U46G A64G	< 1e-05	–	–
A15G U45C U57C	< 1e-05	–	–
A14U A15G A64C	< 1e-05	–	–
G32A C58G C68U	5.31e-05 ± 2.4e-05	8.37e-05 ± 2.3e-05	–
A6C A33G U46C C61G	< 1e-05	< 1e-05	–
A33G G38U U65A C70G	7.69e-05 ± 2.1e-05	–	–
A42G G43A G44C	< 1e-05	< 1e-05	–
C10A A36C U46A	< 1e-05	< 1e-05	< 1e-05
C8G G59U G66U	< 1e-05	–	–
G41C C50G G51C	< 1e-05	–	–
A14C G44C U55C	< 1e-05	–	–
A12G U47G C50A C68G	0.000111 ± 4.4e-05	–	–
A36U U46C C50U C58U G59C C67A	< 1e-05	–	–
A33C U45C U47A A48G	< 1e-05	–	–
G40U U46C A53U	0.000351 ± 0.00012	–	0.000745 ± 0.00019
G7C A36U C67G	< 1e-05	< 1e-05	< 1e-05
U30G U46C U47G	8.33e-05 ± 2.2e-05	–	–
C8U G37U C71G	0.000584 ± 0.00027	–	–
A6U U54C C68G U69G	0.00033 ± 9.7e-05	–	–

Variant	self-cleavage kobs at 640 uM GlcN6P [1] [s⁻¹]	self-cleavage kobs at 2500 uM GlcN6P [2] [s⁻¹]	self-cleavage kobs at 10000 uM GlcN6P [3] [s⁻¹]
A52C U56C C67U	< 1e-05	–	–
G9A A42C G44A	< 1e-05	< 1e-05	–
A42U U47A U54C	3.85e-05 ± 9.6e-06	–	–
A12U G35U	< 1e-05	–	–
C8G G43A C67A	< 1e-05	–	–
U49G C50G G63C U69C	0.00018 ± 4.2e-05	–	–
A12C G29C A42C	< 1e-05	–	–
G13A A52C C58G U69G	4.44e-05 ± 2e-05	–	–
A14U C16A G35C G43C A53C C61U	< 1e-05	< 1e-05	–
C10U U45C C68A	< 1e-05	–	–
U30A A42C C71U	< 1e-05	–	–
A53G G60A C61G	< 1e-05	–	–
C8U G9U A15C G44U	< 1e-05	< 1e-05	–
U31A A33U G44U U69C	< 1e-05	–	–
A36U U45A C50U U54C U57A	< 1e-05	< 1e-05	–
C34A G51A A52G	< 1e-05	< 1e-05	–
G35U G51A G63A C67A	< 1e-05	< 1e-05	–
G43U A52C G66C C68G	< 1e-05	< 1e-05	–

Reference: the supplement of paper PMC7125110
